The chains are these.
B9: human ASPP2^920-1120 (domain or fragment)
chain: MRVKFNPLALLLDSSLEGEFDLVQRIIYEVDDPSLPNDEGITALHNAVCAGHTEIVKFLVQFGVNVNAADSDGWTPLHCAASCNNVQVCKFLVESGAAVFAMTYSDMQTAADKCEEMEEGYTQCSQFLYGVQEKMGIMNKGVIYALWDYEPQNDDELPMKEGDCMTIIHREDEDEIEWWWARLNDKEGYVPRNLLGLYPRI
B10: human PP1β^6-327 (enzyme)
chain: LNVDSLITRLLEVRGCRPGKIVQMTEAEVRGLCIKSREIFLSQPILLELEAPLKICGDIHGQYTDLLRLFEYGGFPPEANYLFLGDYVDRGKQSLETICLLLAYKIKYPENFFLLRGNHECASINRIYGFYDECKRRFNIKLWKTFTDCFNCLPIAAIVDEKIFCCHGGLSPDLQSMEQIRRIMRPTDVPDTGLLCDLLWSDPDKDVQGWGENDRGVSFTFGADVVSKFLNRHDLDLICRAHQVVEDGYEFFAKRQLVTLFSAPNYCGEFDNAGGMMSVDETLMCSFQILKPSEKKAKYQYGGLNSGRPVTPPRTANPPKKR

For the experiment “human ASPP2^920-1120”, the target named is B9. Briefly: ITC. Background: ITC needs no label: the signal is the heat of the interaction.
A further experiment addresses human PP1α^7-330 (human, UniProt P62136 7-330). Briefly: BLI.
The target in another experiment is human PP1γ1^7-323 (human, UniProt P36873 7-323). The experiment in a line: BLI.
For the experiment “human PP1β^6-327”, the target named is B10. Briefly: BLI. For orientation: In BLI a coated tip is dipped into the sample, and binding shifts an interference pattern.
The target in a further experiment is T1, ASPP1^K1052E/S1055D (human, UniProt Q96KQ4 882-1090, K1052E | S1055D).
T1 sequence: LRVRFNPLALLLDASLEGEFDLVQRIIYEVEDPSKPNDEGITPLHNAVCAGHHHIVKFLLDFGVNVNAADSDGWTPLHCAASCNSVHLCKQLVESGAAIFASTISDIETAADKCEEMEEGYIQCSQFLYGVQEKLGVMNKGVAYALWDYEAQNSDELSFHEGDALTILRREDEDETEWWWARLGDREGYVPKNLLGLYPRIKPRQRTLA
Briefly: BLI.

In another experiment the target is T2, ASPP2^E1090K/D1093S (human, UniProt Q13625 920-1120, E1090K | D1093S).
T2 sequence: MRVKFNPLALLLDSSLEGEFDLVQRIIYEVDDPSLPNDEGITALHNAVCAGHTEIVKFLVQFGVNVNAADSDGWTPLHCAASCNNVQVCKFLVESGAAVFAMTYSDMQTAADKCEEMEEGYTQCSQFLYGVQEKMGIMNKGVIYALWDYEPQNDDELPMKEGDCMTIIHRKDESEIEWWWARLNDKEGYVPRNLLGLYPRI
The experiment in a line: BLI.

The target of a further experiment is T3, ASPP2^D1093S (human, UniProt Q13625 920-1120, D1093S).
T3 sequence: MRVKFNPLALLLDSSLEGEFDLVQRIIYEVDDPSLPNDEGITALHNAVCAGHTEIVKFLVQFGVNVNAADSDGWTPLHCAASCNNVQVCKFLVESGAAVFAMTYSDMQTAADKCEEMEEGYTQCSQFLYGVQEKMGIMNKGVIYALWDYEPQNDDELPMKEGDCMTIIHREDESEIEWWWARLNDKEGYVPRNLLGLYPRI
Briefly: BLI.

For the next experiment, the target named is T4, ASPP2^D1091G/E1092P (human, UniProt Q13625 920-1120, D1091G | E1092P).
T4 sequence: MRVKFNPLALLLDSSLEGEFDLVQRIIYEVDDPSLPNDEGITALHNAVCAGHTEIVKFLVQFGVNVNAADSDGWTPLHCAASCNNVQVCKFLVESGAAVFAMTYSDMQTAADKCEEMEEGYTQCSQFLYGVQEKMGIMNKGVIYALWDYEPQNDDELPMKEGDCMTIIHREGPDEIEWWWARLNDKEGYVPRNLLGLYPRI
Briefly: ITC.

As a reminder, the Kd is the concentration at which binding is half-saturated. A higher Kd goes with lower affinity.

B1: PP1γ1^298-323 chimera with the PP1α C-terminal residues NSAKAKK (peptide)
chain: PAEKKKPNATRPVTPPRNSAKAKK
modifications: synthetic peptide, termini not stated; the end of the PPII motif (RPVTPPR) is taken as Arg314 by alignment with PP1α 317-323
Consider B1, for which the Kd in the experiment with human ASPP2^920-1120 was found to be 326 nM.

B2: PP1β^297-327 C-tail peptide (peptide)
peptide: PSEKKAKYQYGGLNSGRPVTPPRTANPPKKR
In the case of B2, the Kd with human ASPP2^920-1120 was determined as 965 nM.

B3: PP1α^301-330 K329A peptide (peptide)
peptide: KNKGKYGQFSGLNPGGRPITPPRNSAKAAK
Molecule B3 returned a Kd with human ASPP2^920-1120 of 342 nM. Against the preceding molecule, the Kd is about 2.8-fold lower.

B4: PP1α^301-330 K327A peptide (peptide)
peptide: KNKGKYGQFSGLNPGGRPITPPRNSAAAKK
In the experiment with human ASPP2^920-1120, B4 came in with a Kd of 520 nM.

B5: PP1γ1^298-323 C-tail peptide (peptide)
peptide: PAEKKKPNATRPVTPPRGMITKQAKK
For B5, the Kd with human ASPP2^920-1120 is 690 nM.

B6: human ASPP1^882-1090 (domain or fragment)
chain: LRVRFNPLALLLDASLEGEFDLVQRIIYEVEDPSKPNDEGITPLHNAVCAGHHHIVKFLLDFGVNVNAADSDGWTPLHCAASCNSVHLCKQLVESGAAIFASTISDIETAADKCEEMEEGYIQCSQFLYGVQEKLGVMNKGVAYALWDYEAQNSDELSFHEGDALTILRRKDESETEWWWARLGDREGYVPKNLLGLYPRIKPRQRTLA
As to B6, the values for the dissociation constant Kd with human PP1α^7-330, with human PP1γ1^7-323 and in the experiment with human PP1β^6-327 were 59 nM, 60.6 nM and 66.5 nM, respectively.

B7: human iASPP^621-828 (domain or fragment)
chain: RRARLNPLVLLLDAALTGELEVVQQAVKEMNDPSQPNEEGITALHNAICGANYSIVDFLITAGANVNSPDSHGWTPLHCAASCNDTVICMALVQHGAAIFATTLSDGATAFEKCDPYREGYADCATYLADVEQSMGLMNSGAVYALWDYSAEFGDELSFREGESVTVLRRDGPEETDWWWAALHGQEGYVPRNYFGLFPRVKPQRSKV
Take B7: the values for the Kd with human PP1α^7-330 and with human PP1γ1^7-323 were 2.4 nM and 4.9 nM, respectively.

B8: PP1β^297-327 chimera with the PP1α C-terminal residues NSAKAKK (peptide)
chain: PSEKKAKYQYGGLNSGRPVTPPRNSAKAKK
modifications: synthetic peptide, termini not stated; the end of the PPII motif (RPVTPPR) is taken as Arg319 by alignment with PP1α 317-323
Take B8: the Kd with human ASPP2^920-1120 was 200 nM. As to B9, the Kd is 195 nM with human PP1γ1^7-323 and 177 nM in the experiment with human PP1β^6-327. For B10, the results for the dissociation constant (Kd) with ASPP1^K1052E/S1055D, with ASPP2^E1090K/D1093S and with ASPP2^D1093S were 84.4 nM, 178 nM and 136 nM, respectively.

B11: PP1α^301-330 C-tail peptide (peptide)
peptide: KNKGKYGQFSGLNPGGRPITPPRNSAKAKK
B11 yielded a Kd in the experiment with ASPP2^D1091G/E1092P of 172 nM.

B12: PP1γ2^297-324 chimera with the PP1α C-terminal residues NSAKAKK (peptide)
chain: KPAEKKKPNATRPVTPPRNSAKAKK
modifications: synthetic peptide, termini not stated; γ2 is identical to γ1 through the PPII motif (end taken as Arg314 by alignment), so the canonical entry is used
Take B12: the Kd in the experiment with human ASPP2^920-1120 stood at 326 nM. This lies in the sub-micromolar range.

B13: PP1α^301-330 K330A peptide (peptide)
peptide: KNKGKYGQFSGLNPGGRPITPPRNSAKAKA
In the experiment with human ASPP2^920-1120, B13 had a Kd of 326 nM.

B14: PP1γ2^297-324 C-tail peptide (peptide)
peptide: KPAEKKKPNATRPVTPPRVASGLNPSIQ
In the experiment with human ASPP2^920-1120, B14 came in with a Kd of 2150 nM. This Kd lies about 6.6-fold higher than the previous one.

The record behind these values is PMC6377682 (2019).
